Results as given in patent publication US20110159013A1 (MERCK, published 2011).

How the values were obtained:
[1] = target: T1, amyloid beta (1-40) peptide; assay: solution equilibrium titration; free IgG by ELISA; GraFit
T1 construct: Residues 1-40 counted on the Aβ1-42 entry; used as monomer-like control; also called Aβ1-40; Aβ1-40 monomer

[2] = target: T2, Aβ-derived diffusible ligands (synthetic ADDLs), soluble oligomers of amyloid β1-42; assay: as above
T2 construct: number of copies varies (trimer, tetramer, 12-24 mer)

[3] = target: ADDL fibril preparation (Aβ1-42 fibrils made in 10 mM hydrochloric acid); assay: as above
[4] = target: amyloid β1-42 peptide (Aβ1-42); assay: cell-based or functional assay

Kd [1]: 27.6 nM
Kd [2]: 2.09 nM
Kd [3]: 10.5 nM
IC50 (read off the curve) [4]: ~100 nM
B1: murine anti-ADDL monoclonal antibody 2B4 (antibody, mouse IgG2b, V domains shown)
VH: not shown
VL: DVVMTQTPLSLPVSLGDQASISCRSSQSLVHSNGNTYLHWYLQKPGQSPKLLIYKVSNRFFGVPDRFSGSGSGTDFTLKISRVEAEDLGVYFCSQTTYVPLTFGAGTKLELK
